The text below walks through data of PMC314469, “Protein Interaction Networks by Proteome Peptide Scanning” (PLoS Biology, 2004).

What all share (assay): SPOT array
For experiment [1], the target named is T1, Yhr016c SH3 (YSC84_YEAST), P32793.
T1 chain: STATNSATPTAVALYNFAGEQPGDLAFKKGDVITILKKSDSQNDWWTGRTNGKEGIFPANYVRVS

Experiment [2] deals with T2, Boi2 SH3 (BOI2_YEAST), P39969.
T2 chain: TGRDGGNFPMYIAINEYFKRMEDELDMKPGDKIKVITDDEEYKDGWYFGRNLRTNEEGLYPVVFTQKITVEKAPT

The target in experiment [3] is T3, Boi1 SH3 (BOI1_YEAST), P38041.
T3 chain: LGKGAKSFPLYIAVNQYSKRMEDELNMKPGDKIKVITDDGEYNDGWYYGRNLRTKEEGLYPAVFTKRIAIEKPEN

The target in experiment [4] is T4, Myo5 SH3 (MYO5_YEAST), Q04439.
T4 chain: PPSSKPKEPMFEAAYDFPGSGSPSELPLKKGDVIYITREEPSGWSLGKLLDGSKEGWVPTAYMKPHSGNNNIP

The target of experiment [5] is T5, Rvs167 SH3 (RV167_YEAST), P39743.
T5 chain: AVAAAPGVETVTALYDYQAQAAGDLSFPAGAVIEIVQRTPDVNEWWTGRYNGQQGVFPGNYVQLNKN

For experiment [6], the target named is Sho1 SH3 (SHO1_YEAST), P40073.
Experiment [7] concerns the target T6, Yfr024 SH3 (LSB3_YEAST), P43603.
T6 chain: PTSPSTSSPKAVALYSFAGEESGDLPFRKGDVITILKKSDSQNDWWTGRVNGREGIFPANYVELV

Sequence of Sho1 SH3 (SHO1_YEAST), P40073 (P40073 295-366): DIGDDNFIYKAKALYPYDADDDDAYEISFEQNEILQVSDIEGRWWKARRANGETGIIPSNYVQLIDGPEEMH

Regarding RPVYRLKPNAPFQY [YLR072W 370-383], the normalised SPOT signal, Boehringer light units (BLU); mean over the file's lines of this peptide in experiment [1] is 129; in experiment [2], 78.2; in experiment [3] it was 72; in experiment [4], 210; in experiment [5], 148; in experiment [6] it was 60.1. In experiment [7], this molecule gave a normalised SPOT signal, Boehringer light units (BLU); mean over the file's lines of this peptide of 583.
For RLLSKYRPSSPIIL [YOR347C 411-424], the normalised SPOT signal, Boehringer light units (BLU); mean over the file's lines of this peptide in experiment [1] was found to be 245; in experiment [2], 50.1; in experiment [3] it was 718; in experiment [4], 337; in experiment [5] it was 1120; in experiment [6] it was 41.8. In experiment [7], this molecule showed a normalised SPOT signal, Boehringer light units (BLU); mean over the file's lines of this peptide of 519.
With RIRDKSKPSSPTAT [YDR474C 379-392], the normalised SPOT signal, Boehringer light units (BLU); mean over the file's lines of this peptide is 46.3 in experiment [1]; 3.1 in experiment [2]; 1510 in experiment [3]; 547 in experiment [4]; 55.6 in experiment [5]; 169 in experiment [6]. Further, in experiment [7], the normalised SPOT signal, Boehringer light units (BLU); mean over the file's lines of this peptide was 592.
RLLFRSLPPHPASL [YCR022C 77-90]: the normalised SPOT signal, Boehringer light units (BLU); mean over the file's lines of this peptide in experiment [1] worked out at 1600; in experiment [2], 67.2; in experiment [3], 465; in experiment [4] it was 746; in experiment [5] it was 587; in experiment [6] it was 571. Besides, the normalised SPOT signal, Boehringer light units (BLU); mean over the file's lines of this peptide in experiment [7] came out at 3510.
On to RLIKRLKPPAPKEP [YML127W 362-375], for which the normalised SPOT signal, Boehringer light units (BLU); mean over the file's lines of this peptide in experiment [1] was 65.9; in experiment [2] it was 40.3; in experiment [3], 375; in experiment [4] it was 403; in experiment [5], 133; in experiment [6], 166. This molecule gave a normalised SPOT signal, Boehringer light units (BLU); mean over the file's lines of this peptide in experiment [7] of 296.
As for RRHNRQHPPYPHSG [YNL165W 14-27], the normalised SPOT signal, Boehringer light units (BLU); mean over the file's lines of this peptide in experiment [1] stood at 43.4; in experiment [2] it was 16; in experiment [3], 299; in experiment [4], 1290; in experiment [5], 51.8; in experiment [6], 65.3. In experiment [7], this molecule showed a normalised SPOT signal, Boehringer light units (BLU); mean over the file's lines of this peptide of 667.
For the molecule RRKLRTVPGVPLIH [YOR004W 127-140], the normalised SPOT signal, Boehringer light units (BLU); mean over the file's lines of this peptide in experiment [1] is 772; in experiment [2], 20.1; in experiment [3] it was 89; in experiment [4], 2010; in experiment [5], 6330; in experiment [6], 85.3. This molecule displayed a normalised SPOT signal, Boehringer light units (BLU); mean over the file's lines of this peptide in experiment [7] of 2640.
For the molecule RLPSKTDPLDPHIK [YML050W 46-59], the normalised SPOT signal, Boehringer light units (BLU); mean over the file's lines of this peptide was found to be 29.3 in experiment [1]; 28 in experiment [2]; 326 in experiment [3]; 129 in experiment [4]; 110 in experiment [5]; 47.9 in experiment [6]. The normalised SPOT signal, Boehringer light units (BLU); mean over the file's lines of this peptide in experiment [7] came to 66.3.
As to RLVNKLLPPHPFAD [YGL143C 139-152], the normalised SPOT signal, Boehringer light units (BLU); mean over the file's lines of this peptide in experiment [1] is 24.8; in experiment [2] it was 28.5; in experiment [3] it was 440; in experiment [4] it was 289; in experiment [5], 144; in experiment [6], 20300. Also, in experiment [7], the normalised SPOT signal, Boehringer light units (BLU); mean over the file's lines of this peptide came out at 187.
Regarding RMQQKNSPAFPTHS [YGR056W 183-196], the normalised SPOT signal, Boehringer light units (BLU); mean over the file's lines of this peptide in experiment [1] turned out to be 1510; in experiment [2] it was 227; in experiment [3], 4830; in experiment [4] it was 1280; in experiment [5] it was 1150; in experiment [6], 1220. The same molecule displayed a normalised SPOT signal, Boehringer light units (BLU); mean over the file's lines of this peptide in experiment [7] of 4550.
Regarding RKSDKNAPSVPQVD [YJL117W 12-25], the normalised SPOT signal, Boehringer light units (BLU); mean over the file's lines of this peptide in experiment [1] is 50.6; in experiment [2], -0; in experiment [3], 1390; in experiment [4], 395; in experiment [5], 40.6; in experiment [6], 89.7. This molecule came in with a normalised SPOT signal, Boehringer light units (BLU); mean over the file's lines of this peptide in experiment [7] of 13.7.
For the molecule RLVSKYRPNSPIIL [YAL038W 409-422], the normalised SPOT signal, Boehringer light units (BLU); mean over the file's lines of this peptide in experiment [1] turned out to be 108; in experiment [2], 74; in experiment [3], 246; in experiment [4] it was 286; in experiment [5], 233; in experiment [6], 42.5. Also, in experiment [7], the normalised SPOT signal, Boehringer light units (BLU); mean over the file's lines of this peptide was 565.
On to RRLKKNLPSLPTPV [YOR127W 138-151], for which the normalised SPOT signal, Boehringer light units (BLU); mean over the file's lines of this peptide in experiment [1] was 50.6; in experiment [2], 41.1; in experiment [3], 1760; in experiment [4] it was 824; in experiment [5], 280; in experiment [6], 27000. The normalised SPOT signal, Boehringer light units (BLU); mean over the file's lines of this peptide in experiment [7] came to 395.
RRIRKEHPGEPNVI [YOR090C 334-347]: the normalised SPOT signal, Boehringer light units (BLU); mean over the file's lines of this peptide in experiment [1] came out at 60.5; in experiment [2], 9; in experiment [3] it was 920; in experiment [4], 308; in experiment [5], 106; in experiment [6], 123. This molecule also had a normalised SPOT signal, Boehringer light units (BLU); mean over the file's lines of this peptide in experiment [7] of 570.
